Measurements published in article PMC9751120 (Cell Death and Differentiation, 2022).

T1: ΔNp63α (human, UniProt Q9H3D4-2 1-586)
T1 construct: open, tetrameric; also called DNp63a; source: E. coli, bacterially expressed and purified (IMAC, SEC on Superose 6)
T1 sequence (looked up): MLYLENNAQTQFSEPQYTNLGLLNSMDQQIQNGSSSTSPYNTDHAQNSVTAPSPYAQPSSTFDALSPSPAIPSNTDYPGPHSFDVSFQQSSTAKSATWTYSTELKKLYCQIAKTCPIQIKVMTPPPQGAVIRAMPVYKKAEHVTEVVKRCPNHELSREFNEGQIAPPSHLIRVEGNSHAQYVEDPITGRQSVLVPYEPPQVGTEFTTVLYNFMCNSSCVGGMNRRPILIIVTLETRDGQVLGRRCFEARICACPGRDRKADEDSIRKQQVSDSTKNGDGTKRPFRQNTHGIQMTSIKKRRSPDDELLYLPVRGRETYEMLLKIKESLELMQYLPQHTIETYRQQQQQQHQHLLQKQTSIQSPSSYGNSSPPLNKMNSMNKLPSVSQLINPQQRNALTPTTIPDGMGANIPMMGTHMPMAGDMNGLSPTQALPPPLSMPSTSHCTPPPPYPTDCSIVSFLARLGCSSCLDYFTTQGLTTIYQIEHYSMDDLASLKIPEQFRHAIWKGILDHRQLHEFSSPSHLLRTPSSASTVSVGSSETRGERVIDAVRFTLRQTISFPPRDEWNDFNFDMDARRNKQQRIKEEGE


Key:
Details in all cases: both partners purified
[1] = biological target: T2, p73 DNA-binding domain; assay: ITC; target protein titrated into a constant concentration of DARPin, 25 injections of 10 µl; 50 mM HEPES pH 7.4, 150 mM NaCl, 0.5 mM TCEP; 25 °C; AB hetero-association model (SEDPHAT)
T2 construct: also called p73 DBD; source: E. coli BL21(DE3) Rosetta, purified (IMAC, TEV digestion, reverse IMAC, SEC)

[2] = biological target: T3, p63 DNA-binding domain (human); assay: ITC; target protein titrated into a constant concentration of DARPin, 25 injections of 10 µl; 50 mM HEPES pH 7.4, 150 mM NaCl, 0.5 mM TCEP; 10 °C; AB hetero-association model (SEDPHAT)
T3 construct: also called p63 DBD; source: E. coli BL21(DE3) Rosetta, purified (IMAC, TEV digestion, reverse IMAC, SEC)

[3] = biological target: T1, ΔNp63α; assay: fluorescence polarisation; fluorescence anisotropy; 500 nM Alexa 488 labeled DARPin constant, p63 isoform 0-10 µM; 50 mM Tris pH 8, 150 mM NaCl, 0.5 mM TCEP, 0.1 % Tween-20; the sheet says 20 °C, the methods 16 °C
[4] = biological target: T4, TAp63α (human); assay: as above
T4 construct: closed, dimeric; also called TAp63a; source: E. coli, bacterially expressed and purified (IMAC, SEC on Superdex 200)

Ka [1] [M⁻¹] | Ka [2] [M⁻¹] | Kd [3] [nM] | Kd [4] [nM] | Binder
4.48e+06 | 3.14e+07 |  |  | DARPin G4 (designed binder, G4 assigned to 7Z7E by elimination: 7Z71 = C14, 7Z72 = A5, 7Z73 = 8F1; 7Z7E is the other p63 DBD-DARPin complex) GSDLGKKLLEAARAGQDDEVRILMANGADVNAADHSGDTPLHLAAMEGHLEIVEVLLKTGADVNAHDLEGYTPLHLAAYHGHLEIVEVLLKAGADVNAWDSYGYTPLHLAAMTGHLEIVEVLLKHGADVNAQDKFGKTPFDLAIDNGNEDIAEVLQKAA
 |  | 137 | 727 | Alexa 488 labeled DARPin G4 (designed binder, Alexa Fluor 488 C5 maleimide on the C-terminal cysteine) GSDLGKKLLEAARAGQDDEVRILMANGADVNAADHSGDTPLHLAAMEGHLEIVEVLLKTGADVNAHDLEGYTPLHLAAYHGHLEIVEVLLKAGADVNAWDSYGYTPLHLAAMTGHLEIVEVLLKHGADVNAQDKFGKTPFDLAIDNGNEDIAEVLQKAA
